These results are taken from patent US20250339531A1 (FRED HUTCHINSON CANCER CENTER, published 2025).

One test deals with T1, 3×MYC-STAT1-S727E (UniProt P42224 1-750).
T1 construct: In vitro translated in rabbit reticulocyte lysate; also called phospho-mimic STAT1-S727E; not shown: 3×MYC tag
T1 sequence (looked up): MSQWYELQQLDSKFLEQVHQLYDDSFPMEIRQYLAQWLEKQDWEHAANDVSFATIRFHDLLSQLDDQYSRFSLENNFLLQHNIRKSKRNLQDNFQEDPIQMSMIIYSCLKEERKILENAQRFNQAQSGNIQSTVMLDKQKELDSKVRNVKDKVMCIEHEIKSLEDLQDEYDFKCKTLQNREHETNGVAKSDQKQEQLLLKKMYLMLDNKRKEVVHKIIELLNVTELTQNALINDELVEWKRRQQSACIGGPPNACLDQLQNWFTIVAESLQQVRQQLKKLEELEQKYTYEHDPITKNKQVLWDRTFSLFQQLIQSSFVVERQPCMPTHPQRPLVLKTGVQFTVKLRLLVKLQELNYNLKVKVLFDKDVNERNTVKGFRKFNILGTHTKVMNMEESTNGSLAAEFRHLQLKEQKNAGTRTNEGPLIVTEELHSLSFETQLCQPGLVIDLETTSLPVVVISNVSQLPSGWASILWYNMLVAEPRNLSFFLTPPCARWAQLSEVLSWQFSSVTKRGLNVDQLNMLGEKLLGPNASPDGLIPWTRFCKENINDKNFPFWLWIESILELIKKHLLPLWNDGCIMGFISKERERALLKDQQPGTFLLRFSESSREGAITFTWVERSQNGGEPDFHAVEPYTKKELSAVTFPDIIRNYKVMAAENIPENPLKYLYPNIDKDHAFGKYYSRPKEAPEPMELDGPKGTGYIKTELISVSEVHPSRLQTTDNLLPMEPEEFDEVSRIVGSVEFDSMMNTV
In words: anti-FLAG IP of in vitro translated proteins, without JAK1 treatment, western.

The target in test [1] is T2, Cyclin-dependent kinase 4 (Homo sapiens, UniProt P11802 2-303).
T2 construct: also called CDK4
T2 sequence (P11802 2-303 limits assumed): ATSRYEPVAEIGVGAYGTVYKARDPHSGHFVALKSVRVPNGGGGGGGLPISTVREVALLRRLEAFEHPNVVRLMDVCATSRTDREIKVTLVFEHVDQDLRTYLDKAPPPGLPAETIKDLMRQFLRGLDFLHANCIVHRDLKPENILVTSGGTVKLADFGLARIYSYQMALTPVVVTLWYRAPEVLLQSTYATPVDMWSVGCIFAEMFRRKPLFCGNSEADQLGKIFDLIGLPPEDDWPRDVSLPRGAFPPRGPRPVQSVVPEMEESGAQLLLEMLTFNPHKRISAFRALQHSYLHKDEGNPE
In words: anti-FLAG co-IP LC-MS, exp 3, +Dox.

The target in test [2] is T3, Nuclease-sensitive element-binding protein 1 (Fragment) (Homo sapiens, UniProt P67809 2-324).
T3 construct: also called YBX1
T3 sequence (P67809 2-324 limits assumed): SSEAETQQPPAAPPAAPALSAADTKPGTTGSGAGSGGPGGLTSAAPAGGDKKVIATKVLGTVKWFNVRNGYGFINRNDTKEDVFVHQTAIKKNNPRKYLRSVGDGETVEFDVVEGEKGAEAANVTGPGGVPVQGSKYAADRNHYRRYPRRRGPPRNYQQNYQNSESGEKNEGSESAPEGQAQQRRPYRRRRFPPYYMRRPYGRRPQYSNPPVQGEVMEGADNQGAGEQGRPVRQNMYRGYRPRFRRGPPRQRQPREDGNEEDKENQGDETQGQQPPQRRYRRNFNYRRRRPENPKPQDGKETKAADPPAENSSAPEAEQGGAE
Kind of test: anti-FLAG co-IP LC-MS, exp 3, +Dox.

In test [3] the target is T4, Immunoglobulin kappa variable 2-40 (Homo sapiens).
T4 construct: also called IGKV2-40
T4 sequence (A0A087WW87 20-121): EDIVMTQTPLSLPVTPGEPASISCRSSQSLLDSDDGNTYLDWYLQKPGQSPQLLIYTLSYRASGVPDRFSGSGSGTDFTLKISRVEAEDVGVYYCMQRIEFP
In words: anti-FLAG co-IP LC-MS, exp 3, +Dox.

For test [4], the target named is T5, Proteasome subunit alpha type (Homo sapiens).
T5 construct: also called PSMA6
Kind of test: anti-FLAG co-IP LC-MS, exp 3, +Dox.

Test [5] has as its target T6, DNA-dependent protein kinase catalytic subunit (Homo sapiens, UniProt P78527 1-4128).
T6 construct: also called PRKDC
Kind of test: anti-FLAG co-IP LC-MS, exp 3, +Dox.

Test [6] has as its target ATP-dependent RNA helicase DDX3X (Homo sapiens, UniProt O00571 2-662). In words: anti-FLAG co-IP LC-MS, exp 3, +Dox.
Test [7] addresses T7, Heterogeneous nuclear ribonucleoprotein M (Homo sapiens, UniProt P52272 2-730).
T7 construct: also called HNRNPM
T7 sequence (looked up): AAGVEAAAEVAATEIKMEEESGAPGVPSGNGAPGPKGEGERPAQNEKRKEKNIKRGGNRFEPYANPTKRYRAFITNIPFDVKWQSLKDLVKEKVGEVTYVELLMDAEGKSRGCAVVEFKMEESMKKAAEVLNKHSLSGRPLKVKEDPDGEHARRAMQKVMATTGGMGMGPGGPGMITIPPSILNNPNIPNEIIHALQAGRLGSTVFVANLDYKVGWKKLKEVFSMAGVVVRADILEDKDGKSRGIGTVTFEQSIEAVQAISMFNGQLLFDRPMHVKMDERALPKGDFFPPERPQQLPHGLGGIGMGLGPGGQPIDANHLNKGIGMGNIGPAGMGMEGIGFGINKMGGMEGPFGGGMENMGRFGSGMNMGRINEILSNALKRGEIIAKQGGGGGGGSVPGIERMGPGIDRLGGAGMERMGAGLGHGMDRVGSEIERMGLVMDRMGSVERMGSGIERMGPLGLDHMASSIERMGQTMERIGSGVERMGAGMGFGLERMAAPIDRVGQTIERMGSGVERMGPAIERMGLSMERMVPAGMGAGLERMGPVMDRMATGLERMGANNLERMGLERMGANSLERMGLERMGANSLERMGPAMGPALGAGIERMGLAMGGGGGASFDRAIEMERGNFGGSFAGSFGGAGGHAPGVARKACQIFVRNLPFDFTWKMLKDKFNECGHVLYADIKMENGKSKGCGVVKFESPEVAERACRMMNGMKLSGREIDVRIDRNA
In words: anti-FLAG co-IP LC-MS, exp 3, +Dox.

Test [8] addresses T8, Heterogeneous nuclear ribonucleoprotein U (Homo sapiens, UniProt Q00839 2-825).
T8 construct: also called HNRNPU; HNRPU
Kind of test: anti-FLAG co-IP LC-MS, exp 3, +Dox.

ATP-dependent RNA helicase DDX3X, sequence (O00571 2-662 limits assumed): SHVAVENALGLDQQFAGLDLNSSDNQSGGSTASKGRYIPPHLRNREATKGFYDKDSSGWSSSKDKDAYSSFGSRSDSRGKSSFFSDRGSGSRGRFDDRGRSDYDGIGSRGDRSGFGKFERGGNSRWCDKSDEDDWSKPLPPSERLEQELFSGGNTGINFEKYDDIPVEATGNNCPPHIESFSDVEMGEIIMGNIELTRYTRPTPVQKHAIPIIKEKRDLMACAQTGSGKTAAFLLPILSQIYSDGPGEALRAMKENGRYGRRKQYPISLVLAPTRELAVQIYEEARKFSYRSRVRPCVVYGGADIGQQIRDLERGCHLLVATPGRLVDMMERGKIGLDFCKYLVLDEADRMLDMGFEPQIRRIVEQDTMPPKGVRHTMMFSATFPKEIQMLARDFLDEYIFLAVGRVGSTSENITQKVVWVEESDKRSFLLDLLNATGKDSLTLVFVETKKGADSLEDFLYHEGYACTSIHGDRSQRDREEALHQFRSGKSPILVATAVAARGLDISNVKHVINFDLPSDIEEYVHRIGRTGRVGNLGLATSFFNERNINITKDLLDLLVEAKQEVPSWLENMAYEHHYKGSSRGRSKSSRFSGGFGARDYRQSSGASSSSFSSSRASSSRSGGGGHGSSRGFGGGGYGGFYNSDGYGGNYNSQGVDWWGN
T8 sequence (Q00839 2-825 limits assumed): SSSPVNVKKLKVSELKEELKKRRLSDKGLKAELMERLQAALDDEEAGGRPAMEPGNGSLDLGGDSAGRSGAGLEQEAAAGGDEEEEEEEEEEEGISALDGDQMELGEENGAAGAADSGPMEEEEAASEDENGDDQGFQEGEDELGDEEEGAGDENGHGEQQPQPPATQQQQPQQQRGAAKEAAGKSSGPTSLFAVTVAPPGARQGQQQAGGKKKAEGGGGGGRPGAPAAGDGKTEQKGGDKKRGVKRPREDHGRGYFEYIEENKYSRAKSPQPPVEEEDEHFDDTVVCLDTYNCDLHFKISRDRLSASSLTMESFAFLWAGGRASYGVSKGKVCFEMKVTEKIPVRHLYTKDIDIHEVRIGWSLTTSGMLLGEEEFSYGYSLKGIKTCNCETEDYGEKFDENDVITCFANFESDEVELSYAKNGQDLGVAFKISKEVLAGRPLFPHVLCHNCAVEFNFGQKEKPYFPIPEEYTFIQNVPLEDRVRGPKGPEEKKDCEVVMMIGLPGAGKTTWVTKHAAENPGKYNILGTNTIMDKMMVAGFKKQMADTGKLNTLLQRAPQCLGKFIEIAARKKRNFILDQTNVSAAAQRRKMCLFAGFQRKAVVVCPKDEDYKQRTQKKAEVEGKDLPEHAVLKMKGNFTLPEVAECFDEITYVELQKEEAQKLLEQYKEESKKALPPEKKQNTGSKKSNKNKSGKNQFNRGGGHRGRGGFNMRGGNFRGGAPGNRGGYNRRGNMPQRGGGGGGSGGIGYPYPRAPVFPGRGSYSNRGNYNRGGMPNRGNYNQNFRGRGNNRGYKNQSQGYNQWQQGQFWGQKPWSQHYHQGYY
Protocol for 3×MYC-STAT1-S727E: To phosphorylate the 3×MYC-STAT1 and 3×MYC-STAT1-S727E proteins at Y701, 20 μL of the TnT reaction was mixed with 8 μL of 5× Kinase Buffer A (ThermoFisher, Cat #PV3189), 4 uL 10 mM ATP (ThermoFisher, Cat #PV3227), 0.4 ug recombinant JAK1 kinase (ThermoFisher, Cat #PV4774), and then nuclease-free ddH2O to a final volume of 40 μL and incubated for 1 hour at 30° C. […] For IPs, the in vitro translated proteins were mixed and incubated for 15 minutes in a 37° C. water bath. […] (F3165) and incubated for 3 hours at 4° C. with gentle rotation. After immunoprecipitation of FLAG-tagged constructs, each sample was washed 3 times with 1 mL of ice-cold in vitro IP buffer in a 4° C. room. Then the immunoprecipitated proteins were eluted from the beads by incubation with 30 uL elution buffer (2×NuPage LDS Sample Buffer diluted with IP buffer) for 10 minutes at 70° C. at 1000 rpm.

B1: i3XFLAG-NLS-CTDaa154-424 (other)
chain: MDYKDHDGDYKDHDIDYKDDDDKPPKRMRREPKKKRKVGRAPAQAGGLCSAAPGGGHPAPSWVAFAHTGAWGTGLPAPHVPCAPGALPQGAFVSQAARAAPALQPSQAAPAEGISQPAPARGDFAYAAPAPPDGALSHPQAPRWPPHPGKSREDRDPQRDGLPGPCAVAQPGPAQAGPQGQGVLAPPTSQGSPWWGWGRGPQVAGAAWEPQAGAAPPPQPAPPDASASARQGQMQGIPAPSQALQEPAPWSALPCGLLLDELLASPEFLQQAQPLLETEAPGELEASEEAASLEAPLSEEEYRALLEEL
notes: Doxycycline-induced in MB135 cells for co-IP; also called longCTD; iDUX4-CTD
With B1, the binding result with 3×MYC-STAT1-S727E is listed as “no binding”. Moreover, the PSMs in [1] was 1 PSMs; in [2] it was 5 PSMs; in [3], 2 PSMs; in test [4] it was 1 PSMs; in test [5] it was 3 PSMs; in test [6], 29 PSMs. The PSMs came to 9 PSMs in [7] and 4 PSMs in test [8].
